{
  "source": "paper PMC8910669",
  "origin": "cited, not measured here",
  "biological_target": "SARS-CoV-2 spike RBD RBD (Severe acute respiratory syndrome coronavirus 2) (UniProt P0DTC2)",
  "data": [
    {"substance": "hBD-2 (from UniProt O15263)", "values": [
      {"measurement": "Kd", "result": 300, "unit": "nM"}
    ]}
  ]
}
